Data taken from US20210017226A1, “METHOD OF GENERATING INTERACTING PEPTIDES” (Peption, LLC, priority 2017, published 2021).
Ends that are not written are not given here.

Legend:
[1] = target: T1, PTD12 (Sp-C9_CAA813-821), synthetic Cas9 target peptide […] (Streptococcus pyogenes); assay: dot blot densitometry
[2] = target: T1, PTD12 (Sp-C9_CAA813-821), synthetic …; assay: dot blot densitometry, same amount of purified proteins

B1: C9-813-CAA4 (tetramer, parallel-linker-antiparallel-linker-parallel-linker-antiparallel), recombinan (designed binder)
chain: MHHHHHHLLSVEVQQLCYPENLEYLFIEKLRSEAEGNGTIDFELLQVDVILLKTGEVNNLEQIKIRLF
Question: B1 was tested. Which fold stronger interaction than the monomers (C9-813-92P, C9-813-93P) [1] did it give?
Answer: 1.5 fold

B2: C9-813-CAA2 (dimer, parallel-linker-antiparallel), recombinant CAAP oligopeptide-AP fusion protein (designed binder, not shown: small tags and cut ends; large carriers)
chain: MHHHHHHELLLSVEVQQLCYPENLEYLFIEKL
Question: Which fold stronger interaction than C9-813-92P or C9-813-93P (monomers) [2] does the source give for B2 here?
Answer: 2.5 fold

Question: And the fold stronger interaction than C9-813-CAA4 (tetramer) [2]?
Answer: 1.5 fold

B3: PTD14 (Sp-C9_CAA813-821PAPH), synthetic His-tagged CAAP oligopeptide dimer (designed binder)
peptide: LLQVDVILLCYPENLEQIKIRLFGSGSHHHHHH
modifications: also: dimer
Question: With B3 as the binder, how does the fold stronger interaction than the monomer PTD13 [1] read?
Answer: 2 fold

Question: And the fold stronger interaction than the sAb monomer PTD13 [1]?
Answer: 2 fold
